B1: Pistol ribozyme (parent)
chain: GGGUCGUUGUUCCAUAAUCGCGUGGAUAUGGCACGCAAGUUUCUACCGGGCACCGUAAAUGUCCGACUGGAGCCGUUCGGGCGGCUAUAAACAGACCUCAGGCCCGAAGCGUGGCGGCACCUGCCGCCGGUGGUAAAAAAGAUCGGAAGAGCACACGUCU

Variants of: B1
Test: aptazyme ON/OFF ratio, guanine; higher = stronger switching; co-transcriptional cleavage with and without guanine

Variant	aptazyme ON/OFF ratio
GGGUCGGCCUAGUAUAAUCGCGUGGAUAUGGCACGCAAGUUUCUACCGGGCACCGUAAAUGUCCGACUGGAGCCGUUCGGGCGGCUAUAAACAGACCUCAGGCCCGAAGCGUGGCGGCACCUGCCGCCGGUGGUAAAAAAGAUCGGAAGAGCACACGUCU	1.1
GGGUCGGCCUAGGAUAAUCGCGUGGAUAUGGCACGCAAGUUUCUACCGGGCACCGUAAAUGUCCGACUGGAGCCGUUCGGGCGGCUAUAAACAGACCUCAGGCCCGAAGCGUGGCGGCACCUGCCGCCGGUGGUAAAAAAGAUCGGAAGAGCACACGUCU	1.16
GGGUCGGCCUAGAAUAAUCGCGUGGAUAUGGCACGCAAGUUUCUACCGGGCACCGUAAAUGUCCGACUGGAGCCGUUCGGGCGGCUAUAAACAGACCUCAGGCCCGAAGCGUGGCGGCACCUGCCGCCGGUGGUAAAAAAGAUCGGAAGAGCACACGUCU	1.13
GGGUCGGCCUCGCAUAAUCGCGUGGAUAUGGCACGCAAGUUUCUACCGGGCACCGUAAAUGUCCGACUGGAGCCGUUCGGGCGGCUAUAAACAGACCUCAGGCCCGAAGCGUGGCGGCACCUGCCGCCGGUGGUAAAAAAGAUCGGAAGAGCACACGUCU	1.34
GGGUCGGCCUCACAUAAUCGCGUGGAUAUGGCACGCAAGUUUCUACCGGGCACCGUAAAUGUCCGACUGGAGCCGUUCGGGCGGCUAUAAACAGACCUCAGGCCCGAAGCGUGGCGGCACCUGCCGCCGGUGGUAAAAAAGAUCGGAAGAGCACACGUCU	1.9
GGGUCGGCCUCUCAUAAUCGCGUGGAUAUGGCACGCAAGUUUCUACCGGGCACCGUAAAUGUCCGACUGGAGCCGUUCGGGCGGCUAUAAACAGACCUCAGGCCCGAAGCGUGGCGGCACCUGCCGCCGGUGGUAAAAAAGAUCGGAAGAGCACACGUCU	1.78
GGGUCGGCCUGACAUAAUCGCGUGGAUAUGGCACGCAAGUUUCUACCGGGCACCGUAAAUGUCCGACUGGAGCCGUUCGGGCGGCUAUAAACAGACCUCAGGCCCGAAGCGUGGCGGCACCUGCCGCCGGUGGUAAAAAAGAUCGGAAGAGCACACGUCU	1.39
GGGUCGGCCUCGAAUAAUCGCGUGGAUAUGGCACGCAAGUUUCUACCGGGCACCGUAAAUGUCCGACUGGAGCCGUUCGGGCGGCUAUAAACAGACCUCAGGCCCGAAGCGUGGCGGCACCUGCCGCCGGUGGUAAAAAAGAUCGGAAGAGCACACGUCU	1.2
GGGUCGGCCUCGUAUAAUCGCGUGGAUAUGGCACGCAAGUUUCUACCGGGCACCGUAAAUGUCCGACUGGAGCCGUUCGGGCGGCUAUAAACAGACCUCAGGCCCGAAGCGUGGCGGCACCUGCCGCCGGUGGUAAAAAAGAUCGGAAGAGCACACGUCU	1.11
GGGUCGGCCUCGGAUAAUCGCGUGGAUAUGGCACGCAAGUUUCUACCGGGCACCGUAAAUGUCCGACUGGAGCCGUUCGGGCGGCUAUAAACAGACCUCAGGCCCGAAGCGUGGCGGCACCUGCCGCCGGUGGUAAAAAAGAUCGGAAGAGCACACGUCU	1.07
GGGUCGGCCUAAGAUAAUCGCGUGGAUAUGGCACGCAAGUUUCUACCGGGCACCGUAAAUGUCCGACUGGAGCCGUUCGGGCGGCUAUAAACAGACCUCAGGCCCGAAGCGUGGCGGCACCUGCCGCCGGUGGUAAAAAAGAUCGGAAGAGCACACGUCU	1.14
GGGUCGGCCUAAAAUAAUCGCGUGGAUAUGGCACGCAAGUUUCUACCGGGCACCGUAAAUGUCCGACUGGAGCCGUUCGGGCGGCUAUAAACAGACCUCAGGCCCGAAGCGUGGCGGCACCUGCCGCCGGUGGUAAAAAAGAUCGGAAGAGCACACGUCU	1.11
GGGUCGGCCUAAUAUAAUCGCGUGGAUAUGGCACGCAAGUUUCUACCGGGCACCGUAAAUGUCCGACUGGAGCCGUUCGGGCGGCUAUAAACAGACCUCAGGCCCGAAGCGUGGCGGCACCUGCCGCCGGUGGUAAAAAAGAUCGGAAGAGCACACGUCU	1.13
GGGUCGGCCUAGCAUAAUCGCGUGGAUAUGGCACGCAAGUUUCUACCGGGCACCGUAAAUGUCCGACUGGAGCCGUUCGGGCGGCUAUAAACAGACCUCAGGCCCGAAGCGUGGCGGCACCUGCCGCCGGUGGUAAAAAAGAUCGGAAGAGCACACGUCU	1.2
GGGUCGGCCUAUCAUAAUCGCGUGGAUAUGGCACGCAAGUUUCUACCGGGCACCGUAAAUGUCCGACUGGAGCCGUUCGGGCGGCUAUAAACAGACCUCAGGCCCGAAGCGUGGCGGCACCUGCCGCCGGUGGUAAAAAAGAUCGGAAGAGCACACGUCU	1.23
GGGUCGGCCUAACAUAAUCGCGUGGAUAUGGCACGCAAGUUUCUACCGGGCACCGUAAAUGUCCGACUGGAGCCGUUCGGGCGGCUAUAAACAGACCUCAGGCCCGAAGCGUGGCGGCACCUGCCGCCGGUGGUAAAAAAGAUCGGAAGAGCACACGUCU	1.19
GGGUCGGCCUCCCAUAAUCGCGUGGAUAUGGCACGCAAGUUUCUACCGGGCACCGUAAAUGUCCGACUGGAGCCGUUCGGGCGGCUAUAAACAGACCUCAGGCCCGAAGCGUGGCGGCACCUGCCGCCGGUGGUAAAAAAGAUCGGAAGAGCACACGUCU	1.87
GGGUCGGCCUGCCAUAAUCGCGUGGAUAUGGCACGCAAGUUUCUACCGGGCACCGUAAAUGUCCGACUGGAGCCGUUCGGGCGGCUAUAAACAGACCUCAGGCCCGAAGCGUGGCGGCACCUGCCGCCGGUGGUAAAAAAGAUCGGAAGAGCACACGUCU	1.33

Variant	aptazyme ON/OFF ratio
GGGUCGGCCUCAGAUAAUCGCGUGGAUAUGGCACGCAAGUUUCUACCGGGCACCGUAAAUGUCCGACUGGAGCCGUUCGGGCGGCUAUAAACAGACCUCAGGCCCGAAGCGUGGCGGCACCUGCCGCCGGUGGUAAAAAAGAUCGGAAGAGCACACGUCU	1.21
GGGUCGGCCUCAUAUAAUCGCGUGGAUAUGGCACGCAAGUUUCUACCGGGCACCGUAAAUGUCCGACUGGAGCCGUUCGGGCGGCUAUAAACAGACCUCAGGCCCGAAGCGUGGCGGCACCUGCCGCCGGUGGUAAAAAAGAUCGGAAGAGCACACGUCU	1.53
GGGUCGGCCUCAAAUAAUCGCGUGGAUAUGGCACGCAAGUUUCUACCGGGCACCGUAAAUGUCCGACUGGAGCCGUUCGGGCGGCUAUAAACAGACCUCAGGCCCGAAGCGUGGCGGCACCUGCCGCCGGUGGUAAAAAAGAUCGGAAGAGCACACGUCU	1.11
GGGUCGGCCUACAAUAAUCGCGUGGAUAUGGCACGCAAGUUUCUACCGGGCACCGUAAAUGUCCGACUGGAGCCGUUCGGGCGGCUAUAAACAGACCUCAGGCCCGAAGCGUGGCGGCACCUGCCGCCGGUGGUAAAAAAGAUCGGAAGAGCACACGUCU	1.09
GGGUCGGCCUACUAUAAUCGCGUGGAUAUGGCACGCAAGUUUCUACCGGGCACCGUAAAUGUCCGACUGGAGCCGUUCGGGCGGCUAUAAACAGACCUCAGGCCCGAAGCGUGGCGGCACCUGCCGCCGGUGGUAAAAAAGAUCGGAAGAGCACACGUCU	1.18
GGGUCGGCCUACGAUAAUCGCGUGGAUAUGGCACGCAAGUUUCUACCGGGCACCGUAAAUGUCCGACUGGAGCCGUUCGGGCGGCUAUAAACAGACCUCAGGCCCGAAGCGUGGCGGCACCUGCCGCCGGUGGUAAAAAAGAUCGGAAGAGCACACGUCU	1.06
GGGUCGGCCUAUGAUAAUCGCGUGGAUAUGGCACGCAAGUUUCUACCGGGCACCGUAAAUGUCCGACUGGAGCCGUUCGGGCGGCUAUAAACAGACCUCAGGCCCGAAGCGUGGCGGCACCUGCCGCCGGUGGUAAAAAAGAUCGGAAGAGCACACGUCU	1.13
GGGUCGGCCUAUAAUAAUCGCGUGGAUAUGGCACGCAAGUUUCUACCGGGCACCGUAAAUGUCCGACUGGAGCCGUUCGGGCGGCUAUAAACAGACCUCAGGCCCGAAGCGUGGCGGCACCUGCCGCCGGUGGUAAAAAAGAUCGGAAGAGCACACGUCU	1.09
GGGUCGGCCUAUUAUAAUCGCGUGGAUAUGGCACGCAAGUUUCUACCGGGCACCGUAAAUGUCCGACUGGAGCCGUUCGGGCGGCUAUAAACAGACCUCAGGCCCGAAGCGUGGCGGCACCUGCCGCCGGUGGUAAAAAAGAUCGGAAGAGCACACGUCU	1.22
GGGUCGGCCUGAUAUAAUCGCGUGGAUAUGGCACGCAAGUUUCUACCGGGCACCGUAAAUGUCCGACUGGAGCCGUUCGGGCGGCUAUAAACAGACCUCAGGCCCGAAGCGUGGCGGCACCUGCCGCCGGUGGUAAAAAAGAUCGGAAGAGCACACGUCU	1.23
GGGUCGGCCUGAAAUAAUCGCGUGGAUAUGGCACGCAAGUUUCUACCGGGCACCGUAAAUGUCCGACUGGAGCCGUUCGGGCGGCUAUAAACAGACCUCAGGCCCGAAGCGUGGCGGCACCUGCCGCCGGUGGUAAAAAAGAUCGGAAGAGCACACGUCU	1.14
GGGUCGGCCUGAGAUAAUCGCGUGGAUAUGGCACGCAAGUUUCUACCGGGCACCGUAAAUGUCCGACUGGAGCCGUUCGGGCGGCUAUAAACAGACCUCAGGCCCGAAGCGUGGCGGCACCUGCCGCCGGUGGUAAAAAAGAUCGGAAGAGCACACGUCU	1.33
GGGUCGGCCUCUAAUAAUCGCGUGGAUAUGGCACGCAAGUUUCUACCGGGCACCGUAAAUGUCCGACUGGAGCCGUUCGGGCGGCUAUAAACAGACCUCAGGCCCGAAGCGUGGCGGCACCUGCCGCCGGUGGUAAAAAAGAUCGGAAGAGCACACGUCU	1.22
GGGUCGGCCUCUUAUAAUCGCGUGGAUAUGGCACGCAAGUUUCUACCGGGCACCGUAAAUGUCCGACUGGAGCCGUUCGGGCGGCUAUAAACAGACCUCAGGCCCGAAGCGUGGCGGCACCUGCCGCCGGUGGUAAAAAAGAUCGGAAGAGCACACGUCU	1.34
GGGUCGGCCUCUGAUAAUCGCGUGGAUAUGGCACGCAAGUUUCUACCGGGCACCGUAAAUGUCCGACUGGAGCCGUUCGGGCGGCUAUAAACAGACCUCAGGCCCGAAGCGUGGCGGCACCUGCCGCCGGUGGUAAAAAAGAUCGGAAGAGCACACGUCU	1.1
GGGUCGGCCUCCUAUAAUCGCGUGGAUAUGGCACGCAAGUUUCUACCGGGCACCGUAAAUGUCCGACUGGAGCCGUUCGGGCGGCUAUAAACAGACCUCAGGCCCGAAGCGUGGCGGCACCUGCCGCCGGUGGUAAAAAAGAUCGGAAGAGCACACGUCU	1.38
GGGUCGGCCUCCGAUAAUCGCGUGGAUAUGGCACGCAAGUUUCUACCGGGCACCGUAAAUGUCCGACUGGAGCCGUUCGGGCGGCUAUAAACAGACCUCAGGCCCGAAGCGUGGCGGCACCUGCCGCCGGUGGUAAAAAAGAUCGGAAGAGCACACGUCU	1.05
GGGUCGGCCUCCAAUAAUCGCGUGGAUAUGGCACGCAAGUUUCUACCGGGCACCGUAAAUGUCCGACUGGAGCCGUUCGGGCGGCUAUAAACAGACCUCAGGCCCGAAGCGUGGCGGCACCUGCCGCCGGUGGUAAAAAAGAUCGGAAGAGCACACGUCU	1.46
